Data taken from publication PMC12289019.

Assays:
[1] = target: adeno-associated virus 2 (AAV2) capsid (adeno-associated virus 2); test: SPR; AAV2 amine-coupled to a CM5 chip (9451 RU); HD5 or HNP1 as analyte; BIAcore X100, 25°C, PBS running buffer; 1:1 binding model for KD; stoichiometry by GraphPad Prism; 2 replicates; paper speaks of avidity
[2] = target: adeno-associated virus 2 (AAV2) capsid (adeno-associated virus 2)
[3] = target: adeno-associated virus 2 (AAV2) capsid (adeno-associated virus 2); remark: listed apart in the source
[4] = target: adeno-associated virus 6 (AAV6) capsid (adeno-associated virus 6)

| Substance | Kd [1] [µM] | stoichiometry N (molecules per capsid) [1] | IC50 of inhibition of AAV2 infection of HeLa cells (GFP), defensin added post-attachment [2] [µM] | IC50 of inhibition of AAV2 infection of HeLa cells (GFP), defensin incubated with virus pre-attachment [3] [µM] | IC50 of inhibition of AAV6 binding to HeLa cells in the cold (qPCR of bound genomes); inhibition incomplete [4] [µM] | IC50 of inhibition of AAV2 binding to HeLa cells in the cold (qPCR of bound genomes) [2] [µM] |
| --- | --- | --- | --- | --- | --- | --- |
| human neutrophil peptide 1 (HNP1) | 0.32 | 227 | 6 | 9.7 |  |  |
| human defensin 5 (HD5) (peptide) | 0.57 | 385 | 4.4 |  | 41.6 | 9.2 |
